According to article PMC8373667:

Molecular target: JJS-A6/A11 VHH heterodimer, thioredoxin-fused (alpaca (Vicugna pacos))
Experiment: far-Western, overlay or dot blot

B1: recombinant Cp-P34 (natural protein)
chain: MSGVSRRAVITDPNGVYEGDVNEKGLKHGNGVYKVNTGDVYEGEYSNGLKNGYGVYTWANGDKFEGYYKDDIKWGHGIYRWSNGEVFEGEYVRGVKCGHGIYTWPNGDRFEGEYKDGVKEGFGVYKLATGRIYEGQYSRDMRNGQGTSRYTDGSVYTGEWFDGKEHGHGLLKFSDSSSYEGDFQNGAPNGQGKYTYSNGNYYVGGFKNGLTDGPGSLTFAEDNRVLKANWKDGQVDGDAAIIYPDGGKYTGEVVNGIRQGKGIMTESNGDIFDGEFFRDFRHGEGILTVNGKQKRVKYNMGKKVGLCSC
percent of VHH binding to the native target blocked by the recombinant protein: 95.2%
